From the DeepSol protein solubility set

experiment: soluble on expression in E. coli; label from the status in PepcDB or PDB records

Sequence	soluble on expression in E. coli
MLKIGIVGCGAIGNFITKKVLDGTIKNAKISAVYDRNFDKAKTLSERTGAKICSSIDDLVKEDLDLVVEAASIKAVEEIAEKSLINNKDVLIMSVGALADKKLFLKLRDLAKTVGRKIYLPSGAIGGLDAIKALRLGEIEEVVLKTTKPVAALEDALKNLGYKPEDIKNPVIVFEGDVFKAIKEFPANINVSVTLSIAAEFPAKVVIVADPNAKLNKHELFVKSSIGTLRVCIENVPFEENPRTSALAAYSAVRLIRDLAEPVKVGT	soluble
SEELDRQKIGGFWREVGVASDQSLVLTAPKRVEGLFLTLSGSNLTVKVAYNSSGSCEIEKIVGSEIDSTGKFAFPGKCSCPVMAGGTRLCTQLGLIVPHAVPCTVPHAVPCTVLCAVPCTVPHAVP	soluble
MFRSVLVEAAVRVESPLLAHRLEDALLHACKQRFCSRILPSLGVCLTALRICKLVDGAGKQLALEIWPVEVSGGGLRARVHVELLLWSPLPHELAFAQVRSCSRFGIRLSILNGFDYAFVPPGSMPEPCTYHEEQRCWSWRFNEDDFVIGEGDWVRVLIERVEYATDSAMATFDSPGTVGSGPPLHILPPPVPVGRTVMETDQANATPGAHPEHAPPLETEPPEFWETPSILPLRVWARLDAPGLGPIDWWS	not soluble
MGSDKIHHHHHHMKRVKEQIKYLALLAICLLSGCSDFLDSYNPSAVTDDFYNTKEGQQKLLTDINARYRNVFNTGELQYYGTDIYMAISEEPAERMFNGYDKTFNSTAPIVGDYWKVLYKIVQESNILLNRCTPDIAGSDYTSLTAQARFFRAMAYYYLVETFGPVPLLTEENTSVIQQAERTGEQAIYTFIITELNDIKDKLDMTTISAGKVTNAAVIHFLGKMYLTRAYKSFAETDDFSNAATTFDLLVENPASGYALQENYAALFDENNQANSEVIWAIQYGLDKNYRGDGNPQQAQFGFNIVALEPDLFIKNQNDYSSVSRKYWVNPKAHELYTDPEADTRYDATFKREYYINNPDNADYGKLGIYFPRWNDKSGMSNNAKRFYPFKQDDEYVWYPQSTALPVLETASDRMPMVRKFSDTKIQWGEGGSREDVIFRLGDTYLLCAEAYLGAGNKKLALERINSIRKRAAKDATAYEAMKLTDLDINVIMDERARELMGEHDRWFDLKRTQTLLTRVPAYNPFVVKYDNLNKNHLVRPIPQDERNKVDGLSQNEGY	not soluble
MGSSHHHHHHSSGLVPRGSEVVIVSATRTPIGSFLGSLSLLPATKLGSIAIQGAIEKAGIPKEEVKEAYMGNVLQGGEGQAPTRQAVLGAGLPISTPCTTINKVCASGMKAIMMASQSLMCGHQDVMVAGGMESMSNVPYVMNRGSTPYGGVKLEDLIVKDGLTDVYNKIHMGSCAENTAKKLNIARNEQDAYAINSYTRSKAAWEAGKFGNEVIPVTVTVKGQPDVVVKEDEEYKRVDFSKVPKLKTVFQKENGTVTAANASTLNDGAAALVLMTADAAKRLNVTPLARIVAFADAAVEPIDFPIAPVYAASMVLKDVGLKKEDIAMWEVNEAFSLVVLANIKMLEIDPQKVNINGGAVSLGHPIGMSGARIVGHLTHALKQGEYGLASICNGGGGASAMLIQKL	soluble
MSLAAIDKTTVATVNGEKITLGEVDSHLKGVFAQMKSQYGDKYMDDPQVAQQILQQRQSVVQGLVTDKVLGIEADKLGIKPSEEEIKKKVDEQFENIKKGMGDNFDKALEAEGYTEDTFKDVIKNQVINQAVQDYIIKDVKVTDEDAQKYYDENKQQFVAKDSGVLTKHLLFENEEEAQKAYDEIQSGKTTFNDLFTKYENNKSENKKPIAENLGVVPAENSGLVQEFVDGLKPLKEGEISKPIKTQFGYHIIQAGATYEKGAQLPFDDVKSQIIQILKQQKDSEKFKADMDQWKKDLNVKVYDDKLQEGLKISEGHHHHHH	soluble
VTAEIRLYITEGEVEDYRVFLERLEQSGLEWRPATPEDADAVIVLAGLWGTRRDEILGAVDLARKSSKPIITVRPYGLENVPPELEAVSSEVVGWNPHCIRDALEDALDVI	soluble
SLRAFRRATDVKTMAALDIQISVEAEGWSSEENLAAFATKVLNAAVDFLKREEEQPFPKMPVELSLVFTDDENIREINAEWRDKDKATNVLSFPAFPLEPGGMPGPMLGDIVIARETVEREALELDKSFEDHLTHLLVHGFLHLFGYDHMDEEEAEEMESLETRILAVLGLSDPYAGQE	not soluble
MTKMSITVNQTVLHQLVKNVDGDSIKMESVLRDELLSITPEVEQMMLQLHQSYQNKAKAFGVFQEKSIFAQHLNRLLEQEIEFLGFSQYSTKLLADELGKYNFAESGTLILCQYNFLATDYLFIALLDSRHSMLVDEHLDIRRTEYLDITQFDIAARINLTDLQVNANSNRYLTFIKGRVGRKISDFFMDFLGAEEGLNPQVQNQCLLQAVSDYCDQGELNKEQTQAVKKQVFEYCKGQLSNGNNIELRELSDSLPTLNEQPFVVFTEKQNYGLEESIPPIRSTLKSLTKFSGSGKGVTLSFDAELLNTRIQWDPMTDTLTIKGLPPNLKDQLQKALKSEN	not soluble
MYSDLAGKVVVITGSATGLGRAMGVRFAKEKAKVVINYRSRESEAHDVLEEIKKVGGEAIAVKGDVTVESDVVNLIQSAVKEFGTLDVMINNAGIENAVPSHEMPLEDWNKVINTNLTGAFLGSREAIKYFVEHDIKGSIINMSSVHEKIPWPLFVHYAASKGGVKLMTETLAMEYAPKGIRVNNIGPGAINTPINAEKFADPKKRADVESMIPMGYIGKPEEIAAVATWLASSEASYVTGITLFADGGMTLYPSFQAGRG	not soluble
MASLSDQSGSIGSEQTRPSGAIPVESLPPQALEQLIASLQQEVEQLADALQQLNFANQRWTLCKQSIEAFAEETTRVDLPGAQSRATDAISSTASAKPETSVEVNQNQRLLVPLSRSLYVLGRVINPERCLIDIGTGYHVERKLADAAEFFDRRLKHVRGSMRQLTLKIDQNQQQMQTIREILVRKLAGAQQAAEHT	not soluble
MVVRVDETTAPLFRQIAALIEDSIVEGSLSSGERAPSTNELAAFHSINPATARKGLQLLVDAGVLEKKRGLGMFVTDNAVELIRGRRRDDFAAAYLAPLVDEAVKLTISKTELHNLIDRVAESRGLYE	soluble
MPAAQEVQISIAEVIEVRGYGLNAPELLSVAVSAADRLPPCPKGTVFDTENVFLNSKGELVIKTVATSRVDRSFVPPEWAKGEEDAQAAAVYCLGAVLRAAGAEEAADVDLFSLVNILTVAMTGTRPTAHRMGQMARNQLRGRDPASMLMCIYEELMGDEDTNQKRPNRKINFLNEKSMF	not soluble
SLIENSHVKKDDIWPSGGQMTVKDLTAKYTEGGNAILENISFSISPGQRVGLLGRTGSGKSTLLSAFLRLLNTEGEIQIDGVSWDSITLEQWRKAFGVIPQKVFIFSGTFRKNLDPYEQWSDQEIWKVADEVGLRSVIEQFPGKLDFVLVDGGCVLSHGHKQLMCLARSVLSKAKILLLDEPSAHLDPVTYQIIRRTLKQAFADCTVILCEARIEAMLECDQFLVIEENKVRQYDSIQKLLNERSDFRQAISPSDGPSAQLEKELQALEKENAQLEWELQALEKELAQ	soluble
MSLTAELQALDAAHHLHPFSANNALGEEGTRVITRARGVWLNDSEGEEILDAMAGLWCVNIGYGRDELAEVAARQMRELPYYNTFFKTTHVPAIALAQKLAELAPGDLNHVFFAGGGSEANDTNIRMVRTYWQNKGQPEKTVIISRKNAYHGSTVASSALGGMAGMHAQSGLIPDVHHINQPNWWAEGGDMDPEEFGLARARELEEAILELGENRVAAFIAEPVQGAGGVIVAPDSYWPEIQRICDKYDILLIADEVICGFGRTGNWFGTQTMGIRPHIMTIAKGLSSGYAPIGGSIVCDEVAHVIGKDEFNHGYTYSGHPVAAAVALENLRILEEENILDHVRNVAAPYLKEKWEALTDHPLVGEAKIVGMMASIALTPNKASRAKFASEPGTIGYICRERCFANNLIMRHVGDRMIISPPLVITPAEIDEMFVRIRKSLDEAQAEIEKQGLMKSEGHHHHHH	not soluble
MSMYTTAQLLAANEKKFKFDPLFLRLFFRESYPFTTEKVYLSQIPGLVNMALYVSPIVSGEVIRSRGGSTSEFTPGYVKPKHEVNPQMTLRRLPDEDPQNLADPAYRRRRIIMQNMRDEELAIAQVEEMQAVSAVLKGKYTMTGEAFDPVEVDMGRSAANNITQSGGTEWSKRDKSTYDPTDDIEAYALNASGVVNIIVFDPKGWALFRSFKAVKEKLDTRRGSNSELETAVKDLGEAVSYKGMYGDTAIVVYSGQYVENDVKKNFLPDNTMVLGNTQARGLRTYGCIQDADAQREGINASARYPKNWVTTGDPAREFTMIQSAPLMLLADPDAFVSVQLA	not soluble
MGSDKIHHHHHHMFQDKYVFAQLASFLNRSKFNRIVTKYDGDKYVKHFTCWNQLLALMFGQLSNRESLRDLIVALEAHHSKCYHLGMGKNVSKSSLARANQDRDYHIFEEYAYYLVSEARQKCANHIFKLGGNVYAFDSTTIDLCLSVFWWAKFRKKKGGIKVHTLYDVETQIPAFFHITEASVHDSKVMIEIPYEPSSYYIFDRGYNNFKMLYKIHQIEAYFVVRAKKNLQYKSIQWKRRLPKNVLSDASVLLTGFYPKQYYPKPLRLVKYWDEEQEREFTFITNAMHISALQVAELYKNRWQVELFFKWLKQHLKIKRFWGTTENAVRIQIYAAICAYCLVAIIQHDMQLDRSTYEVLQILSISLTDKTHLRDLFDKTKFQNDKERFGPNGPSLFNF	not soluble
MGSDKIHHHHHHMLDNSIPTDSCLVSGATVSTDIETLYCNHHDWLQVWLRRRLSSAVDASDLAHDTFVRVLVSGRMPNAEQSRAFLTQIAKGLAVDLYRRRAIEEAYLAALAQLPENLAPSAEERVLALQVLLLLDTALGSLPSRVREVFLLSRLDGLTYSDIAQRRGISVATVRKYMLRAAQACHCVLNSPTGTAP	not soluble
MVAIIDASITRFGKRKESLLELAGEVALPLIGKYEIDFVVVSNSYSGEFNSLSGINNLITTYLSVDKVPSIRVDNTSGSGGSAILVAKSLLDSKITKTVLVLGVEKMSEKNTKQVTSVIASLLSPEEKIVGLTLPSLAGLMTKEYMRRYNASREAFALVAVKNHYNGSLNPFAHIQKVVSLEEVLNSPIIADPLTLYEFTPISDGASAIVMVRDEDAYSFTKKPVFI	not soluble
MNKENIIADAPSDVVKTVQQQVHLNQDEYKYLKQVEQILREGTRRDDRTGTGTISIFGMQSKYCLRNGTIPLLTTKRVYWKGVLEELLWFISGSTDGKLLMEKNVKIWEKNGDRAFLDNLGFTSREEGDLGPVYGFQWRHFGAKYVDCHTDYSGQGVDQLAEVIRQIKEQPDSRRIIMSAWNPSDLGQMVLPPCHTMCQFYVDNGELSCQLYQRSGDMGLGVPFNLASYGLLTHMIAKVCGLKPGTLVHTLGDAHVYSNHVDALKIQLDREPYAFPKIRFTRDVASIDDFTSDMIALDDYKCHPKIPMDMAV	soluble
MNLYRSRNFYARIRGDRALFTNPATKGGSERSSYSVPTRQALQGIIDGIYHKPTFTNVITEVKVVNQIQTELHGVRALLHDYSADLSYVSYLSDVEYLVKFHFIWNENREDLIQDRLPKKHEAIMERSIRKGGRRDIFLGTRECFGLVDEISQEEYETIPSYYNGVTIDLGIMFHSFAYPTSKDTPLKSYFTKTVMENGAIKFKPQSECEIVNTLSSYAFKSLGQLKSVDDEYVDDEYEEYEAMEKGEG	soluble
MSLKRISIKDVALKAGVSIASVSYVLNNKIDSRIPQETIDKVKHAAEELNYRPNNIAKSLKTQRTHIIGLVVADIANPYFSQLARIIEDEANKLGYTLMIGSSDENAEKFEALINMFADRQADGLIIAPVENSEKCLLKLQKQKIPFVLIDRYLSGVEADSIQINNYDISQKVTEHLINGGYKNTLLVAYKTQLQHLLQRTQAFLNTLEKHQIQNSQVLLADKDYIDRDINTGLENMLQNAVKPDAIFFTSNKLAVSGLKKLTQLGINIPQDIAVAAFDETEAYELFPVPLTYVKQPLSAIGTTAVKMLNEKINIKNLPLQNVTLHAELHIGQSTKSKEGHHHHHH	soluble
